Among the data in doi:10.1101/2024.04.22.590616 are Kd values, retold here.

Where two headings read alike, the source gives them in different places.

Assay in all cases: fluorescence polarization
Data set [1] addresses T1, Csm2;Psy3;Shu1;Shu2 (Saccharomyces cerevisiae?;Saccharomyces …, UniProt P40465;Q12318;P38751;P38957 1-213;1-242;1-150;1-223, |||).
T1 sequence 1: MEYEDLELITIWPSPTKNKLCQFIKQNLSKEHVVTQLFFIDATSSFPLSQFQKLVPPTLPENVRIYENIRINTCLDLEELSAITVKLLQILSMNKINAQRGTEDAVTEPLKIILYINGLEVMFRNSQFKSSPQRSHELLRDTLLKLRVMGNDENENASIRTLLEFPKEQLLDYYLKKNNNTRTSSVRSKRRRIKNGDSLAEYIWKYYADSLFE
T1 sequence 2: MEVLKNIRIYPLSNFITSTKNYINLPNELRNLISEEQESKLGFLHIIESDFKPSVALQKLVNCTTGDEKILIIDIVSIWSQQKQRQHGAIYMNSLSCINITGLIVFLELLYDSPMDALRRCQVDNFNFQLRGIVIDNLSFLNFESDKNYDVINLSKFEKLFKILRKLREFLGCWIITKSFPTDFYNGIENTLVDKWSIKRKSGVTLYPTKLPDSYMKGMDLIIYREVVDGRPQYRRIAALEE
T1 sequence 3: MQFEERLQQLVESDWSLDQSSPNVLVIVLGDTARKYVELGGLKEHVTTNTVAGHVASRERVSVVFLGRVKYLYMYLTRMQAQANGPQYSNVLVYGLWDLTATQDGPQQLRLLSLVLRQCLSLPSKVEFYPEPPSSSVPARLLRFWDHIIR
T1 sequence 4: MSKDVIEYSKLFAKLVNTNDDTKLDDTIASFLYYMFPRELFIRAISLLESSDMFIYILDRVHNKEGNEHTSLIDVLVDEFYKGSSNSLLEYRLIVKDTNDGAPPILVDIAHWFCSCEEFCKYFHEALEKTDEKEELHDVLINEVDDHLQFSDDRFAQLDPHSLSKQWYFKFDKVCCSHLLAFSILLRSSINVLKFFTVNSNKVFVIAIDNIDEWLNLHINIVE

Data set [2] deals with T1, Csm2;Psy3;Shu1;Shu2. This is another data set of the same source.
Data set [3] deals with T1, Csm2;Psy3;Shu1;Shu2. The source holds these as a separate data set.
Data set [4] addresses T1, Csm2;Psy3;Shu1;Shu2. The source holds these as a separate data set.
Data set [5] addresses T2, Csm2;Psy3 (Saccharomyces cerevisiae?;Saccharomyces …, UniProt P40465;Q12318 1-213;1-242, |).
T2 sequence 1: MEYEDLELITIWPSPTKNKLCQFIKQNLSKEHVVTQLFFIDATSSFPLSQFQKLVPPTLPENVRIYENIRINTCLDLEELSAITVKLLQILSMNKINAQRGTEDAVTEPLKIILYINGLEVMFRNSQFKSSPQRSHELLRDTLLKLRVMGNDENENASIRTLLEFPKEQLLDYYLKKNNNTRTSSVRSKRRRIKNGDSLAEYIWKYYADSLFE
T2 sequence 2: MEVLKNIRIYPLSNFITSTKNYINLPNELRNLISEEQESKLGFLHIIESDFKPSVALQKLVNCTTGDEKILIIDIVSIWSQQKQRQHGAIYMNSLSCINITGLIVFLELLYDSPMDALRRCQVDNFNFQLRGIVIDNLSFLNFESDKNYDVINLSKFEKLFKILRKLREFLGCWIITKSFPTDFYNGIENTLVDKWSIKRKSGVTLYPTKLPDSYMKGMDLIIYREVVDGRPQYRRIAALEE

For data set [6], the target named is T2, Csm2;Psy3. The source holds these as a separate data set.
For data set [7], the target named is T2, Csm2;Psy3. This is another data set of the same source.
Data set [8] deals with T2, Csm2;Psy3. This is another data set of the same source.
Data set [9] deals with T1, Csm2;Psy3;Shu1;Shu2. The source holds these as a separate data set.

B1: ss60 (ssDNA)
DNA: TTTTTTTTTTTTTTTTTTTTTTTTTTTTTTCTTGACAAGCTTGCGCACTTAGGCCTCTAG
Turning to B1, the Kd is 2370 ± 130 nM with Csm2;Psy3;Shu1;Shu2 [1], 2400 ± 230 nM in the data set with Csm2;Psy3;Shu1;Shu2 [2], 2370 ± 290 nM with Csm2;Psy3;Shu1;Shu2 [3] and 2010 ± 260 nM with Csm2;Psy3;Shu1;Shu2 [4].

B2: Fork (20nt) (dsDNA)
DNA 1: TTTTTTTTTTTTTTTTTTTTCTTGACAAGCTTGCGCACT
DNA 2: AGTGCGCAAGCTTGTCAAGGCACTTTTTTTTTTTTTTTT
B2: the Kd with Csm2;Psy3;Shu1;Shu2 [1] was determined as 2060 ± 130 nM; with Csm2;Psy3 [5], 1350 ± 60 nM; with Csm2;Psy3;Shu1;Shu2 [2] it was 860 ± 70 nM; with Csm2;Psy3 [6] it was 740 ± 50 nM; in the data set with Csm2;Psy3;Shu1;Shu2 [3] it was 1030 ± 120 nM; with Csm2;Psy3 [7] it was 750 ± 70 nM. In addition, the values for the Kd with Csm2;Psy3;Shu1;Shu2 [4] and with Csm2;Psy3 [8] were 970 ± 100 nM and 780 ± 50 nM, respectively.

B3: 3'-overhang (20nt) (dsDNA)
DNA 1: CTTGACAAGCTTGCGCACT
DNA 2: AGTGCGCAAGCTTGTCAAGGCACTTTTTTTTTTTTTTTT
As to B3, the dissociation constant (Kd) in the data set with Csm2;Psy3;Shu1;Shu2 [1] worked out at 2820 ± 190 nM; with Csm2;Psy3 [5], 1920 ± 280 nM; with Csm2;Psy3;Shu1;Shu2 [2] it was 2530 ± 170 nM; with Csm2;Psy3 [6], 1600 ± 130 nM; in the data set with Csm2;Psy3 [7], 1270 ± 120 nM; with Csm2;Psy3;Shu1;Shu2 [4], 2710 ± 220 nM. In the data set with Csm2;Psy3 [8], this molecule registered a Kd of 680 ± 50 nM.

B4: 5'-overhang (20nt) (dsDNA)
DNA 1: TTTTTTTTTTTTTTTTTTTTCTTGACAAGCTTGCGCACT
DNA 2: AGTGCGCAAGCTTGTCAAG
Take B4: the dissociation constant Kd was 2440 ± 200 nM with Csm2;Psy3;Shu1;Shu2 [1]; 1180 ± 100 nM with Csm2;Psy3 [5]; 1580 ± 160 nM with Csm2;Psy3;Shu1;Shu2 [2]; 430 ± 70 nM with Csm2;Psy3 [6]; 1150 ± 110 nM with Csm2;Psy3;Shu1;Shu2 [3]; 950 ± 120 nM with Csm2;Psy3 [7]. Also, the Kd with Csm2;Psy3;Shu1;Shu2 [4] turned out to be 2420 ± 220 nM; with Csm2;Psy3 [8] it was 760 ± 90 nM.

Consider TTTTTTTTTTTTTTTTTTTTCTTGACAAGCTTGCGCACT (ssDNA) [ss39], for which the Kd with Csm2;Psy3;Shu1;Shu2 [1] came to 2760 ± 80 nM; in the data set with Csm2;Psy3 [5], 1650 ± 180 nM; with Csm2;Psy3;Shu1;Shu2 [2], 3190 ± 270 nM; with Csm2;Psy3 [6] it was 1490 ± 180 nM; with Csm2;Psy3;Shu1;Shu2 [3], 2770 ± 250 nM; in the data set with Csm2;Psy3 [7], 1320 ± 120 nM. The Kd with Csm2;Psy3;Shu1;Shu2 [4] is 2370 ± 220 nM; with Csm2;Psy3 [8], 1980 ± 200 nM.

B5: ds39 (dsDNA)
DNA 1: TTTTTTTTTTTTTTTTTTTTCTTGACAAGCTTGCGCACT
DNA 2: AGTGCGCAAGCTTGTCAAGAAAAAAAAAAAAAAAAAAAA
In the case of B5, the Kd was determined as 1490 ± 130 nM in the data set with Csm2;Psy3 [5]; 6850 ± 490 nM in the data set with Csm2;Psy3;Shu1;Shu2 [2]; 1540 ± 80 nM in the data set with Csm2;Psy3 [6]; 7410 ± 610 nM with Csm2;Psy3;Shu1;Shu2 [3]; 1450 ± 130 nM with Csm2;Psy3 [7]; 5800 ± 400 nM in the data set with Csm2;Psy3;Shu1;Shu2 [4]. Moreover, the results for the Kd with Csm2;Psy3 [8] and with Csm2;Psy3;Shu1;Shu2 [9] were 1460 ± 120 nM and 7400 ± 510 nM, respectively.

B6: Fork (10nt) (dsDNA)
DNA 1: ACTGCCCTTACAGCACAGCGGTTTTTTTTTT
DNA 2: TTTTTTTTTTCCGCTGTGCTGTAAGGGCAGT
B6 yielded a Kd with Csm2;Psy3;Shu1;Shu2 [1] of 5840 ± 320 nM.

B7: 3'-overhang (10nt) (dsDNA)
DNA 1: ACTGCCCTTACAGCACAGCGGTTTTTTTTTT
DNA 2: CCGCTGTGCTGTAAGGGCAGT
Take B7: the Kd in the data set with Csm2;Psy3;Shu1;Shu2 [1] came to 4500 ± 120 nM.

As to ACTGCCCTTACAGCACAGCGGTTTTTTTTTT (ssDNA) [ss31], the affinity in the data set with Csm2;Psy3;Shu1;Shu2 [1], expressed as Kd, was 3310 ± 70 nM.

B8: 3'-overhang (5nt) (dsDNA)
DNA 1: ACTGCCCTTACAGCACAGCGGTTTTT
DNA 2: CCGCTGTGCTGTAAGGGCAGT
The molecule B8 yielded a Kd with Csm2;Psy3;Shu1;Shu2 [1] of 4860 ± 280 nM.

B9: ds26 (dsDNA)
DNA 1: ACTGCCCTTACAGCACAGCGGTTTTT
DNA 2: AAAAACCGCTGTGCTGTAAGGGCAGT
As for B9, the Kd in the data set with Csm2;Psy3;Shu1;Shu2 [1] turned out to be 7230 ± 140 nM.

In turn, ACTTACAGCACAGCGGTTTTT (ssDNA) [ss21] had a Kd with Csm2;Psy3;Shu1;Shu2 [1] of 3430 ± 160 nM.

Consider ACTGCCCTTACAGCACAGCGGTTTTT (ssDNA) [ss26], for which binding with Csm2;Psy3;Shu1;Shu2 [1] was put at a Kd of 3540 ± 240 nM.

B10: Fork (5nt) (dsDNA)
DNA 1: ACTGCCCTTACAGCACAGCGGTTTTT
DNA 2: TTTTTCCGCTGTGCTGTAAGGGCAGT
B10 yielded a Kd with Csm2;Psy3;Shu1;Shu2 [1] of 4080 ± 190 nM.

B11: ds21 (dsDNA)
DNA 1: ACTTACAGCACAGCGGTTTTT
DNA 2: AAAAACCGCTGTGCTGTAAGT
In the data set with Csm2;Psy3;Shu1;Shu2 [1], B11 showed an equilibrium dissociation constant (Kd) of 6210 ± 190 nM.
